Numbering of substitutions follows the chain as printed. Names may count otherwise.
B1: wild-type ERT2: ER-LBD with G400V/M543A/L544A/V595A (SEQ ID NO: 3), benchmark construct ZF10-1_p65_ERT2 wild-type (protein)
chain: SAGDMRAANLWPSPLMIKRSKKNSLALSLTADQMVSALLDAEPPILYSEYDPTRPFSEASMMGLLTNLADRELVHMINWAKRVPGFVDLTLHDQVHLLECAWLEILMIGLVWRSMEHPVKLLFAPNLLLDRNQGKCVEGMVEIFDMLLATSSRFRMMNLQGEEFVCLKSIILLNSGVYTFLSSTLKSLEEKDHIHRVLDKITDTLIHLMAKAGLTLQQQHQRLAQLLLILSHIRHMSNKGMEHLYSMKCKNVVPLYDLLLEAADAHRLHAPTSRGGASVEETDQSHLATAGSTSSHSLQKYYITGEAEGFPATA
B2: SB06145: ZF10-1_p65_ERT2 variant L409V/N413D/Q414E/M421L/S463P/H524L (protein)
chain: B1 chain with L128V, N132D, Q133E, M140L, S182P, H243L
B3: SB06136: ZF10-1_p65_ERT2 variant L384M/L391V/N413D/M421L/S463P/H524L (protein)
chain: B1 chain with L103M, L110V, N132D, M140L, S182P, H243L
B4: SB06142: ZF10-1_p65_ERT2 variant L354I/L391V/N413D/M421L/S463P/M517A/H524L (protein)
chain: B1 chain with L73I, L110V, N132D, M140L, S182P, M236A, H243L

Columns and labels:
[1] = following a typical clinical dose of tamoxifen; cited from earlier work
U87MG:1066 cells = test: ERT2 mutant validation in U87MG with mCherry reporter; format: cell-based; conditions: validation screen versus wild-type ERT2
Method: About 16 hours before transduction 100k U87MG:1066 cells were seeded into 16 wells in 12 well plate format. During transduction, cells in each well were transduced with 100k pg of virus of ERT2 variant constructs. After transduction, cells were split in to 50k cells per well in a 24 well plate format, and treated with drug-free media or a range of endoxifen or 4-OHT drug conditions. About two days after treatment of cells with endoxifen or 4-OHT, cells were collected and mCherry reporter expression was quantified by flow cytometry.
Screening of the ERT2 mutant library identified a subset of ERT2 variants that were sensitive to endoxifen at 1 nM. Among this subset, 15 variants (Table 19) were validated in U87MG cells for their ability to activate an mCherry reporter (SB01066; FIG. 14B) at a range of concentrations of 0 pM, 10 pM, 50 pM, 100 pM, and 1 nM of endoxifen (FIG. 15A) and 4-OHT (FIG. 15B). Expression of mCherry was quantified about 24 hours after treatment with endoxifen or 4-OHT.
Select ERT2 variants (Table 20) from the previous screens were further tested for sensitivity to endoxifen and 4-OHT, compared to wild-type ERT2. […] Fold activation was calculated by gMFI mCherry levels of each test condition divided by gMFI mCherry levels of U87MG cells transduced with the reporter (SB01066).

NK cells = test: Validation of ERT2 mutants with mCherry reporter in NK cells; format: cell-based; conditions: primary NK cells, mCherry by flow cytometry
Method: After 10 days of feeder cell activation, NK cells were co-transduced with ERT2 mutant virus and reporter SB01066 virus (Experimental Set-up 1). On Day 2 after transduction, transduced NK cells were treated with endoxifen or 4-OHT at a range of concentrations of 0 nM, 0.01 nM, 0.1 nM, 1 nM, and 10 nM. On Day 4, cells were checked for mCherry expression by flow cytometry.

| Molecule | average peak plasma concentration [1] | 4-OHT concentration at which mCherry expression is activated (U87MG:1066 cells) | endoxifen concentration at which mCherry expression is activated (U87MG:1066 cells) | 4-OHT concentration at which variant was sensitive (NK cells) [nM] | endoxifen concentration at which variant was sensitive (NK cells) [nM] |
| --- | --- | --- | --- | --- | --- |
| CC/C(=C(\c1ccccc1)c1ccc(OCCN(C)C)cc1)c1ccccc1 [tamoxifen] | approximately 40 ng/mL | – | – | – | – |
| B1 | – | about 25 nM | about 25 nM | – | – |
| B2 | – | – | – | 0.1 | 0.1 |
| B3 | – | – | – | 0.1 | 0.1 |
| B4 | – | – | – | 0.1 | 0.1 |

Source: patent US20240150433A1, “ERT2 MUTANTS AND USES THEREOF” (Senti Biosciences, Inc., priority 2021, published 2024)
